The binders below were run against RUNX1 (Homo sapiens, UniProt Q01196) (assay: gcPBM; 2 nM RUNX1). Conditions: tags: N-terminal GST (pDEST15), kept (PMC6008103); label: surface-attached array probe.
RUNX1, sequence (Q01196 whole entry): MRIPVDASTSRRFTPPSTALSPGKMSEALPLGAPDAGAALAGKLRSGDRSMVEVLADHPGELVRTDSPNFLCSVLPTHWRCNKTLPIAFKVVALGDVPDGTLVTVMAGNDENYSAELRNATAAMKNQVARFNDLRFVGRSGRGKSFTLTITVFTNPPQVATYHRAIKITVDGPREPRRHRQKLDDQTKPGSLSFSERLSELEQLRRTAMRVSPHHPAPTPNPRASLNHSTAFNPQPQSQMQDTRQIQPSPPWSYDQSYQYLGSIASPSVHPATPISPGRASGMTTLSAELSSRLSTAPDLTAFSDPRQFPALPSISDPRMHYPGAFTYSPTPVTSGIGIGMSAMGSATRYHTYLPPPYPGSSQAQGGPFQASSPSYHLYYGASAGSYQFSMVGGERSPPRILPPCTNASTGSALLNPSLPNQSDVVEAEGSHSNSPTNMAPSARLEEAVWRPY

Binder	binding signal
Table S3 C row 50 (dsDNA) DNA 1: GCGTGACAGAATGTGCTTCCGCTTGCGCCTCTGAGC DNA 2: GCTCAGAGGCGCAAGCGGAAGCACATTCTGTCACGC	755 PBM fluorescence, median of replicate spots
Table S3 C row 93 (dsDNA) DNA 1: TCCTTCCCTGGCAACAGGAAGTGAAAATGCCAGGCC DNA 2: GGCCTGGCATTTTCACTTCCTGTTGCCAGGGAAGGA	766 PBM fluorescence, median of replicate spots
Table S3 C row 41 (dsDNA) DNA 1: CAGACTCGGCGTCGGCTTCCGGCGGCGTCAGAGACG DNA 2: CGTCTCTGACGCCGCCGGAAGCCGACGCCGAGTCTG	762 PBM fluorescence, median of replicate spots
Table S3 C row 54 (dsDNA) DNA 1: CAGACCCCGTGGGGCAGGAAGCTGCTGGGGTAGGCC DNA 2: GGCCTACCCCAGCAGCTTCCTGCCCCACGGGGTCTG	758 PBM fluorescence, median of replicate spots
Table S3 C row 23 (dsDNA) DNA 1: CCCAGCCGGCCTGGACATCCGCCCCGCGCGCGGCGT DNA 2: ACGCCGCGCGCGGGGCGGATGTCCAGGCCGGCTGGG	759 PBM fluorescence, median of replicate spots
Table S3 C row 108 (dsDNA) DNA 1: TCTGCCCTCCCAGCACTTCCGGGCTGGCAGAAGAGC DNA 2: GCTCTTCTGCCAGCCCGGAAGTGCTGGGAGGGCAGA	763 PBM fluorescence, median of replicate spots
Table S3 C row 127 (dsDNA) DNA 1: CTCCGAACTTAGGACAGGAAGAAACAGGCACATTTC DNA 2: GAAATGTGCCTGTTTCTTCCTGTCCTAAGTTCGGAG	751 PBM fluorescence, median of replicate spots
Table S3 C row 193 (dsDNA) DNA 1: CCGACCCCGCTGCCCCGGAAGGTGAGGCAAGCCTGG DNA 2: CCAGGCTTGCCTCACCTTCCGGGGCAGCGGGGTCGG	761 PBM fluorescence, median of replicate spots
Table S3 C row 77 (dsDNA) DNA 1: TCGGGCCGGGAGCCGGTTCCGGCTGAGTCGGCAGGG DNA 2: CCCTGCCGACTCAGCCGGAACCGGCTCCCGGCCCGA	765 PBM fluorescence, median of replicate spots
Table S3 C row 110 (dsDNA) DNA 1: AGCTTATCATCGTCACGGAAGCCCCGCCAGGTGGCG DNA 2: CGCCACCTGGCGGGGCTTCCGTGACGATGATAAGCT	759 PBM fluorescence, median of replicate spots
Table S3 C row 49 (dsDNA) DNA 1: TGGGACTGACTGAGTCTTCCGTGTGTCGCCGCCGTT DNA 2: AACGGCGGCGACACACGGAAGACTCAGTCAGTCCCA	756 PBM fluorescence, median of replicate spots
Table S3 C row 98 (dsDNA) DNA 1: TCGGCGGGGCTGTACCGGAAGTTGCCTCTACTTCTG DNA 2: CAGAAGTAGAGGCAACTTCCGGTACAGCCCCGCCGA	759 PBM fluorescence, median of replicate spots
Table S3 C row 150 (dsDNA) DNA 1: TCTGAACTCTGACAACTTCCTGTCGCTCTGAGTGTG DNA 2: CACACTCAGAGCGACAGGAAGTTGTCAGAGTTCAGA	757 PBM fluorescence, median of replicate spots
Table S3 C row 57 (dsDNA) DNA 1: TTCATTGTTAGGGAACATCCGGGCCTGTCCCCTCCC DNA 2: GGGAGGGGACAGGCCCGGATGTTCCCTAACAATGAA	752 PBM fluorescence, median of replicate spots
Table S3 C row 89 (dsDNA) DNA 1: AGCACAGCTTCGGGCCGGAATCACGATCCACCAGAC DNA 2: GTCTGGTGGATCGTGATTCCGGCCCGAAGCTGTGCT	755 PBM fluorescence, median of replicate spots
Table S3 C row 154 (dsDNA) DNA 1: CCGGCTCATCTGGTATTTCCTGAGCACCTGCGACGT DNA 2: ACGTCGCAGGTGCTCAGGAAATACCAGATGAGCCGG	757 PBM fluorescence, median of replicate spots
Table S3 C row 153 (dsDNA) DNA 1: CCGCCTTCAGGGCGGCGGAAGTCGCTGGCTGCTCTT DNA 2: AAGAGCAGCCAGCGACTTCCGCCGCCCTGAAGGCGG	759 PBM fluorescence, median of replicate spots
Table S3 C row 25 (dsDNA) DNA 1: CTCCAGGGGTGTCACCGGAAAAAGCCGTTTCTGGAG DNA 2: CTCCAGAAACGGCTTTTTCCGGTGACACCCCTGGAG	765 PBM fluorescence, median of replicate spots

Reference: PMC10681739, “High-throughput data and modeling reveal insights into the mechanisms of cooperative DNA-binding by transcription factor proteins”
